Patent US6025480

Assays:
[1] = biological target: cyclin A-cdk2 (baculovirally coexpressed cyclin A and cdk2-HA)
[2] = biological target: cyclin E-cdk2 (baculovirally coexpressed cyclin E and cdk2-HA)

In the case of “flag-p57 (mouse p57^KIP2 tagged at the N-terminus with the flag epitope)”, the half-maximal inhibition of histone H1 kinase activity [1] is reported as 0.5 nM and the half-maximal inhibition of histone H1 kinase activity [2] is reported as 0.5 nM.
